According to publication PMC10878525:
Read-outs that look alike come from different tables or passages of the source.

Legend:
[1] = target: chicken sodium hydrogen exchanger isoform 1 (chNHE1), expressed on 293T cells (pCAF-chNHE1) (chicken); test: virus-cell binding assay read by RT-qPCR; 293T cells transfected with pCAF-chNHE1, exposed to rescued virus at MOI 50 for 1 h at 4 °C, washed five times; gp85 gene RT-qPCR against human GAPDH
[2] = target: chicken sodium hydrogen exchanger isoform 1 (chNHE1), expressed on 293T cells (pCAF-chNHE1) (chicken); test: flow cytometry on cells; virus-cell binding: 293T cells transfected with pCAF-chNHE1 incubated with 50 MOI rescued virus 1 h on ice; stained with 4A3 anti-gp85 and FITC secondary, anti-FLAG co-staining
[3] = target: chicken sodium hydrogen exchanger isoform 1 (chNHE1), expressed on 293T cells (pCAF-chNHE1) (chicken); test: flow cytometry on cells
[4] = target: soluble chECL1 protein (chicken); test: SPR; Biacore 8K; chECL1 immobilised on a CM5 chip to about 100 RU; serial dilutions of gp85 flowed; 10 mM HEPES pH 7.2, 150 mM NaCl, 0.05% Tween-20; 1:1 binding model
[5] = target: chECL1, first extracellular loop of chNHE1, with a C-terminal HA tag (chicken); test: co-IP
[6] = target: soluble chECL1 protein (chicken); test: SPR; Biacore 8K; chECL1 immobilised on a CM5 chip to about 100 RU; serial dilutions of gp85 flowed; 10 mM HEPES pH 7.2, 150 mM NaCl, 0.05% Tween-20; 1:1 binding model; remark: listed apart in the source
[7] = target: chicken sodium hydrogen exchanger isoform 1 (chNHE1), expressed on 293T cells (pCAF-chNHE1) (chicken); test: flow cytometry on cells; protein-cell binding assay: purified gp85-Fc (0.5 mL of 200 ng/uL; 300, 200 and 50 ng/uL in Fig 2A) incubated 1 h on ice with 293T cells transfected with pCAF-chNHE1; anti-human IgG (Fc specific)-FITC, anti-FLAG co-staining
[8] = target: chECL1, first extracellular loop of chNHE1, with a C-terminal HA tag (chicken); test: co-IP; 293T cells co-transfected with chECL1 (HA) and pCAF-gp85 plasmids for 48 h; lysates on anti-HA-agarose; blot with 4A3 and anti-HA; gp85 intensities normalised to input

Q: Which results are given for “Env of the recombinant virus rHPRS103-N123I (N123I in gp85), on virions (complex)”?
A: fold binding capacity against rHPRS103 (RT-qPCR) [1]: 7.14 fold; fold binding capacity against rHPRS103 (FACS) [2]: 1.27 fold

Q: What does the source list for “Env of the recombinant virus rHPRS/JL3-1 (gp85 of JL08CH3-1 on the HPRS103 backbone), on virions (complex)”?
A: fold binding capacity against rHPRS103 (RT-qPCR) [1]: 7.96 fold; fold binding capacity against rHPRS103 (FACS) [2]: 1.29 fold

Q: How did the binding rate at 50 ng/μL [3] turn out when “JL08CH3-1-gp85 (CAG-JL3-1-gp85-Fc) (Fc fusion)” was run?
A: 58.5%

Q: What about the binding rate at 200 ng/μL [3] of the same substance?
A: 85%

Q: And the binding rate at 300 ng/μL [3]?
A: 87.9%

Q: And the Kd [4]?
A: 0.109 µM

Q: For “JL08CH3-1-gp85 (pCAF-JL3-1-gp85) (natural protein)”, which fold binding capacity against HPRS103-gp85 [5] is on record?
A: 1.3 fold

Q: Which results are given for “N123I-gp85 (CAG-N123I-gp85-Fc) (Fc fusion)”?
A: Kd [6]: 0.135 µM; fold binding capacity against HPRS103-gp85 [7]: 1.3 times

Q: With “N123I-gp85 (pCAF-N123I-gp85) (natural protein)” as the substance, how does the fold binding against HPRS103-gp85 [8] read?
A: 1.6 fold

Q: “N123I/V128F mutant gp85 (on CAG-sgp85-Fc backbone) (Fc fusion)” was tested. Which fold binding capacity against HPRS103-gp85 [7] did it give?
A: 1.3 times

Q: How did the binding rate at 50 ng/μL [3] turn out when “soluble HPRS103-gp85 (CAG-sgp85-Fc) (Fc fusion)” was run?
A: 9.7%

Q: And the binding rate at 200 ng/μL [3]?
A: 59.2%

Q: And the binding rate at 300 ng/μL [3]?
A: 70%

Q: What about the Kd [4] of the same substance?
A: 0.584 µM

Q: And the Kd [6]?
A: 0.547 µM
